For four molecules, Kd, koff and kon results are on record in article PMC10349087 (Nature Communications, 2023).

Holding throughout (experiment): BLI
Common to all, as to details: both partners purified

Experiment [1] has as its target SARS-CoV-2 spike receptor-binding domain, Omicron BA.1 variant (amino acids 331-529), biotinylated (SARS-CoV-2, Omicron BA.1, G339D | S371L | S373P | S375F | K417N | N440K | G446S | S477N | T478K | E484A | …, biotin (RBD expression vector co-expressed with BirA-Flag, 100 μM biotin added)).
In experiment [2] the target is SARS-CoV-2 spike receptor-binding domain, Omicron BA.2 variant (amino acids 331-529), biotinylated (SARS-CoV-2 Omicron BA.2, G504D | S371F | S375F | T376A | D405N | R408S | K417N | N440K | S477N | T478K | …, biotin (RBD expression vector co-expressed with BirA-Flag, 100 μM biotin added)).
Experiment [3] has as its target SARS-CoV-2 spike receptor-binding domain, Delta variant (amino acids 331-529), biotinylated (SARS-CoV-2, Delta, L452R | T478K, biotin (RBD expression vector co-expressed with BirA-Flag, 100 μM biotin added)).

B1: NIV-13 Fab (Fab, V domains shown)
VH: EVQLLESGGGLVQPGGSLRLSCAASGFTFSRYALSWVRQAPGKGLEWVSAISGAAITTYYADSVKGRFTISRDDSRNTLFMQMDSLRAEDTAVYYCAKGDYYDSSGYLAEYFPHWGQGTLVTVSS
VL: SYELTQPPSVSVSPGQTARITCFADALPKQHAYWYQQKAGQAPVLVIFKDTERPSGIPKRFSGSRSGATVTLTISGVQAEDEADYYCQSTDISGVLFGGGTKLTVL
In the case of B1, in experiment [1], the Kd (in general, the free concentration of one partner at which half of the binding sites on the other are occupied at equilibrium, for simple one-to-one binding) worked out at 0.802 nM; the off-rate (koff) (commonly a measure of how fast the partners let go of each other) is 0.000248 s⁻¹; the kon (in general, the rate constant with which the complex forms) came to 309000 M⁻¹ s⁻¹. Besides, in experiment [2], the Kd is 1.49 nM, the dissociation rate constant (koff) was found to be 0.000369 s⁻¹ and the kon came to 247000 M⁻¹ s⁻¹. In experiment [3], this molecule registered a Kd of 0.0919 nM, a koff of 3.72e-05 s⁻¹ and a kon of 405000 M⁻¹ s⁻¹.

B2: NIV-11 Fab (Fab, V domains shown)
VH: QLVQSGPEVKKPGTSVKVSCKASGFTFYYSAVQWVRQARGQRLEWLGWMAVGSGKANYAQKFQERLTLTRDMSTSTAYMELSSLRSEDTAVYYCAAPNCTGGSCYDGFNLWGQGTVVTVSS
VL: EIVLTQSPGTLSLSPGDRAILSCRASQTVNSNYLAWYQQKPGQAPRLLIYGTSSRATGIPDRFSGSGSGTDFTLTISRLEPEDFAVYYCQQYGSSPWLFGQGTKVEIK
In the case of B2, in experiment [1], binding was put at a Kd of 9.14 nM, the koff was found to be 0.00335 s⁻¹ and the kon is 366000 M⁻¹ s⁻¹. In experiment [2], this molecule yielded an equilibrium dissociation constant (Kd) of 11 nM, a koff of 0.00355 s⁻¹ and an on-rate constant (kon) of 322000 M⁻¹ s⁻¹. In experiment [3], the affinity, expressed as Kd, was 0.00478 nM; the koff is 5.08e-07 s⁻¹; the kon was found to be 106000 M⁻¹ s⁻¹.

B3: NIV-8 Fab (Fab, V domains shown)
VH: EVQLVESGGGVVQPGRSLRLSCAASGFKFSKFAMHWVRQAPGKGPEWVAVISYDGNQYHSADSVKGRFTISRDNSFNTLYLQMNSLGPEDTAVYYCARDGPDTSGYYANIYFDFWGQGTLVTVSS
VL: QSVLTQPPSVSGAPGQRVTISCTGSSSNIGAGYDVHWYQQLPGRAPKLLIFDNNNRPSGVPDRFSGSKSGTSASLAITGLQTEDEAYYYCQSYDNSLILAVFGGGTKVTVL
On to B3, for which, in experiment [1], the Kd was determined as 24.7 nM, the koff was 0.00312 s⁻¹ and the kon came to 126000 M⁻¹ s⁻¹. In experiment [2], the Kd worked out at 20 nM, the koff is 0.00206 s⁻¹ and the kon amounted to 103000 M⁻¹ s⁻¹. In experiment [3], this molecule gave a Kd of 0.00475 nM, a koff of 1.28e-06 s⁻¹ and a kon of 269000 M⁻¹ s⁻¹.

B4: NIV-10 Fab (Fab, V domains shown)
VH: EVQLVESGGGLVQPGGSLRLSCAASGFTFYSYWMTWVRQAPGKGLEWVANIKHDESESHYVDSVRGRFTISRDNAKNSVYLQMKGLRAEDTAVYYCARDGGYNILTAYYHAPSYWGQGTLVTVSS
VL: QSALTQPASVSGSPGQSITISCTGTSSDVGGYNFVSWYRQYPGKAPQLMIYDVSRRPSGDSDRFSGSKSGNTASLTISGLQAEDEAEYHCSSYTGRSPYVVFGGGTKVTVL
Regarding B4, the Kd in experiment [1] turned out to be 96.6 nM; in experiment [2] it was 76.1 nM; in experiment [3] it was 0.00371 nM. Moreover, the koff in experiment [1] came to 0.0124 s⁻¹; in experiment [2], 0.0064 s⁻¹; in experiment [3], 1.31e-06 s⁻¹. Besides, the kon amounted to 129000 M⁻¹ s⁻¹ in experiment [1], 84100 M⁻¹ s⁻¹ in experiment [2] and 354000 M⁻¹ s⁻¹ in experiment [3].
